Results from US20230257727.

Legend:
[1] = target: T1, Test peptide LMSHNARGAEDDVVRGGGGK linked to a DNA oligo
T1 chain: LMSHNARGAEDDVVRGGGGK

M15-LAAR = target: T2, M15-LAAR
T2 chain: LAAR

[2] = target: Polypeptides with M15-L-labeled P1 residues A, I, L, M, Q, V
M19-LAAR = target: T3, M19-LAAR
T3 chain: LAAR

M19-AAAR = target: T4, M19-AAAR
T4 chain: AAAR

[3] = target: M15-L-P1-AR peptides with D or E in the P1 position

B1: Unmodified dipeptidyl aminopeptidase DAP BII (SEQ ID NO: 13) (protein)
chain: GEGMWVPQQLPEIAGPLKKAGLKLSPQQISDLTGDPMGAVVALGGCTASFVSPNGLVVTNHHCAYGAIQLNSTAENNLIKNGFNAPTTADEVSAGPNARVFVLDEITDVTKDAKAAIAAAGDDALARTKALEAFEKKLIADCEAEAGFRCRLYSFSGGNTYRLFKNLEIKDVRLAYAPPGSVGKFGGDIDNWMWPRHTGDFAFYRAYVGKDGKPAAFSKDNVPYQPKHWLKFADQPLGAGDFVMVAGYPGSTNRYALAAEFDNTAQWTYPTIARHYKNQIAMVEAAGKQNADIQVKYAATMAGWNNTSKNYDGQLEGFKRIDAAGQKLREEAAVLGWLKGQGAKGQPALDAHAKLLDLLEQSKATRDRDLTLALFNNTAMLGSATQLYRLSIEREKPNAERESGYQERDLPAIEGGLKQLERRYVAAMDRQLQEYWLNEYIKLPADQRVAAVDAWLGGNDAAAVKRALDRLAGTKLGSTEERLKWFAADRKAFEASNDPAIQYAVAVMPTLLKLEQERKTRAGENLAARPVYLQALADYKKSQGEFVYPDANLSLRITFGNVMGYAPKDGMEYTPFTTLEGVVAKETGQDPFDSPKALLDAVAAKRYGGLEDKRIGSVPVNYLSDLDITGGNSGSPVLDAHGKLVGLAFDGNWESVSSNWVFDPKMTRMIAVDGRYLRWIMQEVYPAPQLLKEMNVGK
- cleavage of a peptide-DNA fusion, gel bands at 0, 5, 30, 45, 60 min [1]: would continue gradually cleaving the polypeptide, creating multiple bands during the cleavage reaction (FIG. 10)

B2: M15-L_Z001 modified cleavase (Thermomonas hydrothermalis S46 DPP scaffold) (protein)
chain: MHKTRLVAALAAALATLAPAAWADEGMWVPQQLPEIAGALKKAGLKLDPKQLSDLTGDPMGAVVSLGGCTGSFVSPQGLVATNHHCAYGAIQLNSTPEKNLIKDGFNAPTQADELSAGPNARIYVLEGITDVTAQAKAAMAAAGNDPVARANALEAFEKKITSDCEAEPGYRCRVYSFMGGITYRLFKNLEIKDVRLVYAPPSSVGKFGGDIDMGMWPTHTGDFSFYRAYVGKDGKPAPYSKDNVPYRPKHWLKIADTPLGEGDFVMVAGYPGRTDRYALVAEFENTQNWLYPAISKAYKDQIALVEAAAKDNPEIAVKYAAALAGWNRTSKNFDGQLEGFKRNDVLAIKRREEAAVLEWLRARGKAGTPALEAHAALVKLVADTARTQERDLVLGSFNRTGIIGVAVNLYRLAIERQKPDAEREPGYQQRDLPVIEGSLKQMERRYVPAMDRQLRAYWLDRYVALPAAQHVAAVDAWLGGSDKAAAEAALARLDQSRLGSLEERLKWFNADRAAFEASTDPAIQYAVAVMPTLLAMEQQAKTRYGVALEARPRYLQAVVDYKKSKGQAVYPDANSTLRITYGHVKGYTGLNGKVYTPFTTLEEVAAKETGVEPFDNPKALLEAVAAKRYAGLADARLGTVPVNFLADLDITGGNSGSPVLDANGRLVGLAFAGTLESVASNWVFDPVLTRMISVDQRYMRWIMQEVMPAPQLLEELGVPPRQ
- cleavage efficiency, time course 5, 10, 20, 30 and 60 minutes (M15-LAAR): the M15-L_Z001 cleavase provided better specificity towards the M15-labeled polypeptide
- cleavage [2]: provided 100% cleavage

B3: M19_053 cleavase clone (Thermomonas hydrothermalis S46 DPP scaffold) (protein)
chain: MHKTRLVAALAAALATLAPAAWADEGMWVPQQLPEIAGALKKAGLKLDPKQLSDLTGDPMGAVVSLGGCTGSFVSPQGLVATNHHCAYGAIQLNSTPEKNLIKDGFNAPTQADELSAGPNARIYVLEGITDVTAQAKAAMAAAGNDPVARANALEAFEKKITSDCEAEPGYRCRVYSFMGGITYRLFKNLEIKDVRLVYAPPSSVGKFGGDIDMGMWPTHTGDFSFYRAYVGKDGKPAPYSKDNVPYRPKHWLKIADTPLGEGDFVMVAGYPGRTDRYALVAEFENTQNWLYPAISKAYKDQIALVEAAAKDNPEIAVKYAAALAGWNPTSKNFDGQLEGFKRNDVLAIKRREEAAVLEWLRARGKAGTPALEAHAALVKLVADTARTQERDLVLGSFNRTGIIGVAVNLYRLAIERQKPDAEREPGYQQRDLPVIEGSLKQMERRYVPAMDRQLRAYWLDRYVALPAAQHVAAVDAWLGGSDKAAAEAALARLDQSRLGSLEERLKWFNADRAAFEASTDPAIQYAVAVMPTLLAMEQQAKTRYGVALEARPRYLQAVVDYKKSKGQAVYPDANSTLRITYGHVKGYTGLNGKVYTPFTTLEEVAAKETGVEPFDNPKALLEAVAAKRYAGLADARLGTVPVNFLADLDITGGNSGSPVLDANGRLVGLAFAGTLESVASNWVFDPVLTRMISVDQRYMRWIMQEVMPAPQLLEELGVPPRQ
- cleavage efficiency, time course 5, 10, 20, 30 and 60 minutes (M19-LAAR): the newly selected cleavase clone M19_053 provided better specificity towards the M19-labeled polypeptide

B4: P1 cutter 1 (Thermomonas hydrothermalis S46 DPP scaffold) (protein)
chain: MHKTRLVAALAAALATLAPAAWADEGMWVPQQLPEIAGALKKAGLKLDPKQLSDLTGDPMGAVVSLGGCTGSFVSPQGLVATNHHCAYGAIQLNSTPEKNLIKDGFNAPTQADELSAGPNARIYVLEGITDVTAQAKAAMAAAGNDPVARANALEAFEKKITSDCEAEPGYRCRVYSFMGGITYRLFKNLEIKDVRLVYAPPSSVGKFGGDIDTMMWPKHTGDFSFYRAYVGKDGKPAPYSKDNVPYRPKHWLKIADTPLGEGDFVMVAGYPGRTDRYALVAEFENTQNWLYPAISKAYKDQIALVEAAAKDNPEIAVKYAAALAGWNYTSKNFDGQLEGFKRNDVLAIKRREEAAVLEWLRARGKAGTPALEAHAALVKLVADTARTQERDLVLGSFNRTGIIGVAVNLYRLAIERQKPDAEREPGYQQRDLPVIEGSLKQMERRYVPAMDRQLRAYWLDRYVALPAAQHVAAVDAWLGGSDKAAAEAALARLDQSRLGSLEERLKWFNADRAAFEASTDPAIQYAVAVMPTLLAMEQQAKTRYGVALEARPRYLQAVVDYKKSKGQAVYPDANSTLRITYGHVKGYTGLNGKVYTPFTTLEEVAAKETGVEPFDNPKALLEAVAAKRYAGLADARLGTVPVNFLADLDITGGNSGSPVLDANGRLVGLAFDGTLESVASNWVFDPVLTRMISVDQRYMRWIMQEVMPAPQLLEELGVPPRQ
- cleavage, product identified by LC-MS (M19-AAAR): the observed mass of the cleaved product was 230.2 Da, which matched well with the expected mass for the M19-A (M+H) part (231.2 Da)

B5: M15-L_Z002 modified cleavase (Thermomonas hydrothermalis S46 DPP scaffold) (protein)
chain: MHKTRLVAALAAALATLAPAAWADEGMWVPQQLPEIAGALKKAGLKLDPKQLSDLTGDPMGAVVSLGGCTGSFVSPQGLVATNHHCAYGAIQLNSTPEKNLIKDGFNAPTQADELSAGPNARIYVLEGITDVTAQAKAAMAAAGNDPVARANALEAFEKKITSDCEAEPGYRCRVYSFMGGITYRLFKNLEIKDVRLVYAPPSSVGKFGGDIDMGMWPTHTGDFSFYRAYVGKDGKPAPYSKDNVPYRPKHWLKIADTPLGEGDFVMVAGYPGRTDRYALVAEFENTQNWLYPAISKAYKDQIALVEAAAKDNPEIAVKYAAALAGWNRTSKNFDGQLEGFKRNDVLAIKRREEAAVLEWLRARGKAGTPALEAHAALVKLVADTARTQERDLVLGSFNRTGIIGVAVNLYRLAIERQKPDAEREPGYQQRDLPVIEGSLKQMERRYVPAMDRQLRAYWLDRYVALPAAQHVAAVDAWLGGSDKAAAEAALARLDQSRLGSLEERLKWFNADRAAFEASTDPAIQYAVAVMPTLLAMEQQAKTRYGVALEARPRYLQAVVDYKKSKGQAVYPDANSTLRITYGHVKGYTGLNGKVYTPFTTLEEVAAKETGVEPFDNPKALLEAVAAKRYAGLADARLGTVPVNFLADLDITGGNSGSPVLDANGRLVGLAFAGTLESVASNWVFDPVLTRMISVDQRYMRWIMQEVMPAPQLLEELGVPPRQ
- cleavage profile [3]: M15-L_Z002, having specificity towards D and E in the P1 position
